Reference: IntAct's records for PubMed 25535969

B1: Lysine-specific demethylase 3A (Homo sapiens), Q9Y4C1 (parent)
chain: MVLTLGESWPVLVGRRFLSLSAADGSDGSHDSWDVERVAEWPWLSGTIRAVSHTDVTKKDLKVCVEFDGESWRKRRWIEVYSLLRRAFLVEHNLVLAERKSPEISERIVQWPAITYKPLLDKAGLGSITSVRFLGDQQRVFLSKDLLKPIQDVNSLRLSLTDNQIVSKEFQALIVKHLDESHLLKGDKNLVGSEVKIYSLDPSTQWFSATVINGNPASKTLQVNCEEIPALKIVDPSLIHVEVVHDNLVTCGNSARIGAVKRKSSENNGTLVSKQAKSCSEASPSMCPVQSVPTTVFKEILLGCTAATPPSKDPRQQSTPQAANSPPNLGAKIPQGCHKQSLPEEISSCLNTKSEALRTKPDVCKAGLLSKSSQIGTGDLKILTEPKGSCTQPKTNTDQENRLESVPQALTGLPKECLPTKASSKAELEIANPPELQKHLEHAPSPSDVSNAPEVKAGVNSDSPNNCSGKKVEPSALACRSQNLKESSVKVDNESCCSRSNNKIQNAPSRKSVLTDPAKLKKLQQSGEAFVQDDSCVNIVAQLPKCRECRLDSLRKDKEQQKDSPVFCRFFHFRRLQFNKHGVLRVEGFLTPNKYDNEAIGLWLPLTKNVVGIDLDTAKYILANIGDHFCQMVISEKEAMSTIEPHRQVAWKRAVKGVREMCDVCDTTIFNLHWVCPRCGFGVCVDCYRMKRKNCQQGAAYKTFSWLKCVKSQIHEPENLMPTQIIPGKALYDVGDIVHSVRAKWGIKANCPCSNRQFKLFSKPASKEDLKQTSLAGEKPTLGAVLQQNPSVLEPAAVGGEAASKPAGSMKPACPASTSPLNWLADLTSGNVNKENKEKQPTMPILKNEIKCLPPLPPLSKSSTVLHTFNSTILTPVSNNNSGFLRNLLNSSTGKTENGLKNTPKILDDIFASLVQNKTTSDLSKRPQGLTIKPSILGFDTPHYWLCDNRLLCLQDPNNKSNWNVFRECWKQGQPVMVSGVHHKLNSELWKPESFRKEFGEQEVDLVNCRTNEIITGATVGDFWDGFEDVPNRLKNEKEPMVLKLKDWPPGEDFRDMMPSRFDDLMANIPLPEYTRRDGKLNLASRLPNYFVRPDLGPKMYNAYGLITPEDRKYGTTNLHLDVSDAANVMVYVGIPKGQCEQEEEVLKTIQDGDSDELTIKRFIEGKEKPGALWHIYAAKDTEKIREFLKKVSEEQGQENPADHDPIHDQSWYLDRSLRKRLHQEYGVQGWAIVQFLGDVVFIPAGAPHQVHNLYSCIKVAEDFVSPEHVKHCFWLTQEFRYLSQTHTNHEDKLQVKNVIYHAVKDAVAMLKASESSFGKP

Variants of: B1
Details: with STAT1, P42224-1
Chain of STAT1, P42224-1 (P42224 whole entry): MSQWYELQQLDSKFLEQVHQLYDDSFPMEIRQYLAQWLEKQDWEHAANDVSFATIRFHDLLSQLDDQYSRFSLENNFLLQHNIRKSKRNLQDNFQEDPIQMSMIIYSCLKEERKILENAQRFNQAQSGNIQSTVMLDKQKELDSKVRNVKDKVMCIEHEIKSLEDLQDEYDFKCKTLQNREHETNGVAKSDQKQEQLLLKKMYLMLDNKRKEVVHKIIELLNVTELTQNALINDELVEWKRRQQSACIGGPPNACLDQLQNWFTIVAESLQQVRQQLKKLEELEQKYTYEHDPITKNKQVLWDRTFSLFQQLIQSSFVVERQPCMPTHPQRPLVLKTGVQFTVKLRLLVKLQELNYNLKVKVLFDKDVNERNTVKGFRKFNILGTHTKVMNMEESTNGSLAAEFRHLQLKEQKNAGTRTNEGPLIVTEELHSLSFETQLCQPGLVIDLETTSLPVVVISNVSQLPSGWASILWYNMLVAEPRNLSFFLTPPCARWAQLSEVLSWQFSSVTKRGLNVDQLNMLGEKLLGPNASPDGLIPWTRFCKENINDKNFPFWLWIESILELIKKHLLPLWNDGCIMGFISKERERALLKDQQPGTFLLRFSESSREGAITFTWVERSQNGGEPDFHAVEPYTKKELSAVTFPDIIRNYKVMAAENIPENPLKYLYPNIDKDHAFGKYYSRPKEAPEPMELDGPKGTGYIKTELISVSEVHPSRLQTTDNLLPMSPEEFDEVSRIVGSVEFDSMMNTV

| effect of a mutation on the interaction | Variant |
| --- | --- |
| disrupting interaction strength | S264A |
